Assay results from patent US20200181259A1.

Biological target: mouse CD47-Fc (mouse) (UniProt Q61735)
Assay: bio-light interferometry (ForteBio), antibody on AHQ tip, mouse CD47-Fc 100 nM in solution, bivalent

Sequence of mouse CD47-Fc (mouse) (Q61735 19-140 limits assumed): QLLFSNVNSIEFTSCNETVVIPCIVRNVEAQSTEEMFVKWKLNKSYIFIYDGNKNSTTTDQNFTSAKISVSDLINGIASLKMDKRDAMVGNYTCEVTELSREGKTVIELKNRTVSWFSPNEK
Sequence of Hu5F9, control anti-CD47 antibody transiently expressed in 293 HEK cells (VH): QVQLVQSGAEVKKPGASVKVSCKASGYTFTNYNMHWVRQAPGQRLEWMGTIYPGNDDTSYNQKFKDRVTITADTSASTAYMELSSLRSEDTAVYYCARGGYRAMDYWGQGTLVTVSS
Sequence of Hu5F9, control anti-CD47 antibody transiently expressed in 293 HEK cells (VL): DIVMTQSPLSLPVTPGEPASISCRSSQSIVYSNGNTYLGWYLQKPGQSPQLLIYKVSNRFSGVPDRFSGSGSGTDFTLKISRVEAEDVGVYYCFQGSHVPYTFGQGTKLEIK

**Q.** Which Kd does the source give for “Hu5F9, control anti-CD47 antibody transiently expressed in 293 HEK cells” here?
**A.** 12.7 nM
